Columns and labels:
[1] = target: T1, hTIGIT on the surface of 293F-hTIGIT-short #1B1 cells (human, UniProt Q495A1 22-162, limits assumed); experiment: flow cytometry competition on 293F-hTIGIT-short cells; competitor PVR (method as in Example 4)
T1 construct: domain: extracellular domain and transmembrane domain; It is a truncated ('short') construct without the cytoplasmic part; also called 293F-hTIGIT-short cells; 293F-hTIGIT-short #1B1 cell line
T1 sequence (looked up): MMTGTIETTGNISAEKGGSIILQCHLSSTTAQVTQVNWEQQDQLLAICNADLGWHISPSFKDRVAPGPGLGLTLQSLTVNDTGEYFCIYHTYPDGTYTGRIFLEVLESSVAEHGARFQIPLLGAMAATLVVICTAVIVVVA

[2] = target: T2, hTIGIT-His protein (human, UniProt Q495A1 22-141); experiment: ELISA on hTIGIT-His, method as in Example 3
T2 construct: Coated on the ELISA plate at 0.5 µg/mL; also called antigen hTIGIT-his protein; not shown: His tag
T2 sequence (looked up): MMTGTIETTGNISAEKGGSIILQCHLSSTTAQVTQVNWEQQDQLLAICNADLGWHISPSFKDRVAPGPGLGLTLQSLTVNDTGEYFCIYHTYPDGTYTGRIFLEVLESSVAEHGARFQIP
Procedure: (§1) The hTIGIT-his protein was diluted to 0.5 μg/mL with CBS buffer, coated in an ELISA plate in 50 μL/well, and left at 4° C. overnight. The plate was washed with PBST buffer for three times, 200 μL/well, and patted dry. 1% of BSA (dissolved in PBS) was then added, 200 μL/well, and the plate was incubated at 37° C. for 2 hours. After incubation, the plate was washed with PBST for three times, 200 μL/well, and patted dry. […] 100 μL was sucked with a multi-channel pipette, transferred into the ELISA plate, and incubated at 37° C. for 1 hour. After incubation, the plate was washed with PBST for three times, 200 μL/well, and patted dry. An anti-mouse IgG antibody labeled by HRP was diluted with 1% of BSA (dissolved in PBST) (diluted at 1:5000), 100 μL/well. Incubation was performed at 37° C. for 1 hour. After incubation, the plate was washed with PBST for three times, 200 μL/well, and patted dry. 50 μL of TMB chromogen solution was added into each well for chromogenic reaction, and the reaction time was 5 minutes in the dark. After 5 minutes of incubation, hydrochloric acid stop solution was directly added to stop the reaction in 50 μL/well. Absorbances at 450 nm (OD450) were detected by the light absorption mode of a microplate reader.

[3] = target: T1, hTIGIT on the surface of …; experiment: flow cytometry on cells expressing hTIGIT, method as in Example 3
Procedure: (§2) The 293F-hTIGIT-short #1B1 cell line was digested, terminated, centrifuged, resuspended and counted, and the cell density was adjusted to 4×10⁶ cells/mL. According to 50 μL/tube, 20×10⁴ cells were added into 1.5 mL EP tubes. […] The blank group was added with 150 μL of PBS as a blank control. Gentle blowing and mixing were performed, and incubation was performed on ice for 1 hour. After incubation, 500 μL of PBS was added for centrifugal washing once, centrifugation was performed at 2000 rpm for 5 minutes, and the supernatants were discarded. A fluorescent secondary antibody was added (Alexa® 488 fluorescently labeled anti-mouse IgG antibody was diluted with PBS (diluted at 1:500) and added to the corresponding tubes in 200 μL/tube), gentle blowing and mixing were performed, and incubation was performed on ice in the dark for 30 minutes. After 30 minutes of incubation, signal detection was performed with a flow cytometer.
The method was the same as that in example 3.

[4] = target: T3, mouse-derived TIGIT protein (accession number: NP_001139797.1) (mouse, UniProt P86176 29-148, limits assumed); experiment: indirect ELISA, method as in Example 3
T3 construct: also called mouse TIGIT
T3 sequence (looked up): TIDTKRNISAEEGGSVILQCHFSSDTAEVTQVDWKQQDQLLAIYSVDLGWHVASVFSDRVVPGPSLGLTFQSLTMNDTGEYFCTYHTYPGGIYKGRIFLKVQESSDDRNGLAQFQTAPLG
Procedure: as §1, with “The” for “The hTIGIT-his protein was diluted to 0.5 μg/mL with CBS buffer, coated in an ELISA plate in 50 μL/well, and left at 4° C. overnight. The”

[5] = target: T1, hTIGIT on the surface of …; experiment: flow cytometry competition on 293F-hTIGIT-short #1B1 cells; competitor 4.1D3 at 6 µg/mL, detected with anti-human IgG
[6] = target: T1, hTIGIT on the surface of …; experiment: flow cytometry competition on 293F-hTIGIT-short #1B1 cells; competitor PVR-hFc at 6 µg/mL
Procedure: The 293F-hTIGIT-short #1B1 cell line was digested, terminated, centrifuged, resuspended and counted, and the cell density was adjusted to 4×10⁶ cells/mL. According to 50 μL/tube, 20×10⁴ cells were added into 1.5 mL EP tubes. […] 100 μL of PBS was added into the blank group. Gentle blowing and mixing were performed, and incubation was then performed on ice for 1 hour. After incubation, 500 μL of PBS was added for centrifugal washing once, centrifugation was performed at 2000 rpm for 5 minutes, and the supernatants were discarded. Alexa® 488 fluorescently labeled anti-mouse or anti-human IgG antibody was diluted with PBS (diluted at 1:500) and added to the corresponding tubes in 200 μL/tube, gentle blowing and mixing were performed, and incubation was performed on ice in the dark for 30 minutes. After 30 minutes of incubation, signal detection was performed with a flow cytometer.

[7] = target: T2, hTIGIT-His protein; experiment: ELISA, hTIGIT-His coated at 0.5 µg/mL
Procedure: as §1

[8] = target: T1, hTIGIT on the surface of …; experiment: flow cytometry on 293F-hTIGIT-short #1B1 cells
Procedure: as §2

B1: hTIGIT humanized antibody h60H5 (antibody, human IgG1, V domains shown)
VH: QVQLVQSGAEVKKPGASVKVSCKTSGYTFTEYTMHWVRQAPGQRLEWIGGINPNNGGTSYNQKFQGRVTITVDTSASTAYMELSSLRSEDTAVYYCARSGNWDYAMDYWGQGTTVTVSS
VL: DIQMTQSPSSMSASVGDRVTITCKASQHVSTAVVWYQQKPGKAPKLLIYSASYRYTGVPDRFSGSGSGTDFTFTISSLQPEDIATYYCQQHYITPWTFGGGTKLEIKR
notes: also called 60H5-H2L1
IC50 [1]: 2 µg/mL | EC50 [2]: 0.006 µg/mL | EC50 [3]: 1.57 µg/mL

B2: hTIGIT mouse-derived antibody m51C1 (antibody, V domains shown)
VH: QVQLQQSGAELVKPGASVKLSCKASGYTFTEYFIHWIKQKSGQGLEWIGWFYPGSGSIKYNERFKDKATLTADKSSSTVYMELSRLTSEDSAVYFCARHEMRYGNYVLDYWGQGTTLTVSS
VL: QAVVTQESALTTSPGETVTLTCRSSTGAVTTRNYANWVQEKPDHLFTGLIGGTNNRVPGVPARFSGSLIGDKAALTITGAQTEDEAIYFCGLWYSNHLVFGGGTKLTVLG
notes: Mouse monoclonal antibody from a hybridoma
binding result [4]: no binding | IC50 [5]: 4.08 µg/mL | IC50 [6]: 1.35 µg/mL | EC50 [7]: 0.00396 µg/mL | EC50 [8]: 0.811 µg/mL

B3: hTIGIT humanized antibody h51C1 (antibody, human IgG1, V domains shown)
VH: QVQLVQSGAEVKKPGASVKVSCKASGYTFTEYFIHWVRQAPGQGLEWIGWFYPGSGSIKYNERFKDRVTLTADTSISTAYMELSRLRSDDTAVYYCARHEMRYGNYVLDYWGQGTTVTVSS
VL: QAVVTQEPSLTVSPGGTVTLTCRSSTGAVTTRNYANWVQQKPGQAPRGLIGGTNNRVPGVPARFSGSLLGGKAALTLSGAQPEDEAEYYCGLWYSNHLVFGGGTKLTVLG
notes: also called 51C1-H2L2
IC50 [1]: 5.21 µg/mL | EC50 [2]: 0.007 µg/mL | EC50 [3]: 2.98 µg/mL
